Source: PMC8109800

Tests used:
[1] = system: Chl1 full-length (Chaetomium thermophilum); test: fluorescence anisotropy; conditions: no plateau reached, low affinity; 50 mM HEPES pH 8.0, 50 mM NaCl, 0.5 mM TCEP, 25 C; 10 nM FAM-DNA; quadratic fit
[2] = system: MiniChl1V2 (Chaetomium thermophilum); test: fluorescence anisotropy; conditions: 50 mM HEPES pH 8.0, 50 mM NaCl, 0.5 mM TCEP, 25 C; 10 nM FAM-DNA; quadratic fit

## 22-mer ssDNA
[1]
  Kd: > 1000 nM
[2]
  Kd: 38 nM
